The values that follow come from patent US20100092484A1 (published 2010).

In test [1] the target is T1, human CD44 (on cells) (human, UniProt P16070 21-742). Briefly: cell-based or functional assay.
Test [2] deals with T2, human CD44-IgG1 fusion protein (extracellular domain of human CD44 fused to human IgG1) (human).
T2 construct: also called human CD44-Ig fusion protein; human CD44-Fc fusion protein
As to the kind of experiment: ELISA: antibody pre-mixed with human CD44-Ig (0.6 µg/ml); inhibition of CD44-Ig binding to plate-coated hyaluronic acid (HA). How it is done:
(§1) Human anti-CD44 antibodies were evaluated for their ability to inhibit the interaction between HA (Sigma, Cat. No. H5388) and human CD44 protein (SEQ ID NO:3) as described in EXAMPLE 2.
(§2) Binding assays were conducted in 96 well ELISA assay plates (Immunolux HB Maxisorp 96-well plates, Nunc Cat. No. 442-404). On day one, 100 μl of rooster comb HA diluted in 50 mM Nabicarb buffer, pH 9.6 at 2.5 mg/ml was added to assay wells on the plate and incubate at 4° C. overnight. Approximately, 24 hours later the HA coated plates were washed four times using 300 μl of PBS buffer with 0.05% Tween-20 (Sigma, Cat. No. P1379). The plates were then blocked by adding 200 μl of 3% BSA in PBS to each well and incubated for 2 hours at 37° C. The blocked plates were then washed with PBS with 0.05% Tween-20. […] The mixture was incubated at room temperature for 60 minutes and then transferred to the HA-coated plates and incubate at room temperature for one hour. The plates were washed by PBS with 0.05% Tween-20. Anti-human IgG-HRP (Amersham Biosciences, Piscataway, N.J., State, Cat. No. NA933) diluted 1:500 in 1% BSA (to detect CD44-Ig that is bound to HA) were added to each wells and incubate at room temperature. […] The reactions were then stopped with 50 μl of stop solution and OD₄₅₀ values were measured on a plate reader.

In test [3] the target is T1, human CD44 (on cells). As to the kind of experiment: cell-based or functional assay. The source holds these as a separate data set.
Test [4] concerns the target T2, human CD44-IgG1 fusion protein …. As to the kind of experiment: BIAcore 2000 SPR, human CD44-Ig immobilised on a CM-5 chip, antibody 100 to 0.1 ug/ml as analyte. As to the method:
Human CD44-Ig (55 RU, 86 RU) and cyno CD44-Ig (99 RU, 116 RU) were immobilized to CM-5 chips at a concentration of 10 ug/ml in 10 mM Na Acetate pH 3.5. […] The chip was then regenerated with 50 mM NaOH and washed with HBS-EP (BIAcore 22-0512-44). Analysis was carried out on the Biacore 2000. Data was analyzed using BIAEvaluation™ software (n=2).
(In general: Surface plasmon resonance follows binding to a sensor surface in real time, without labels.)

The target in test [5] is T1, human CD44 (on cells). Briefly: FACS competition against labelled anti-CD44 antibody MEM-85 on cells bearing human CD44; cells: 300-19 cells transfected with human CD44 per legend paragraph 42, but the range 0.2 to 20 µg/ml is that of the human peripheral T cell study in paragraph 322.
Test [6] addresses T1, human CD44 (on cells). As to the kind of experiment: FACS equilibrium binding analysis on 300-19 cells transduced with human CD44; printed as 'binding constant'. As to the method: The 300-19 cells which were transduced with retroviral vector encoding human CD44 protein and were washed two times by PBS. […] After 3 hours the cells were washed twice with FACS buffer. The cells were resuspended into 250 μl of 1% paraformaldehyde, (Electron Microscopy Science, Ft. Washington, Pa., Cat. No. 15710). The tubes were read using Becton Dickinson FACSCalibur and the data was analyzed using CellQuest Pro (Becton Dickinson).

Test [7] deals with T2, human CD44-IgG1 fusion protein …. Briefly: BIAcore SPR, human CD44-Fc fusion immobilised on a CM5 chip, antibody as analyte. How it is done: Surface plasmon resonance was used to measure the molecular interaction on a CM5 sensor chip coated with human CD44-Fc fusion protein (12 μg/ml, 10 mM Acetate, pH 4.0) on the surface. Anti-CD44 Abs at concentration of 5, 3, 2, 1, 0.5 and 0.25 μg/ml were screened by direct method. Human IgG1 and IgG2 standards were used to check nonspecific and background binding. Initial portion of the association and dissociation phase of the curves are used to calculate affinity and rate constants and is reported in TABLE 17.

For test [8] the target is unchanged. Briefly: ELISA: antibody pre-mixed with human CD44-Ig (0.6 µg/ml); inhibition of CD44-Ig binding to plate-coated hyaluronic acid (HA, a polysaccharide). How it is done: as §1, §2
Test [9] has as its target T1, human CD44 (on cells). As to the kind of experiment: cell-based or functional assay. This is another data set of the same source.
Test [10] has as its target T3, lymphatic vessel endothelial hyaluronan receptor 1 protein (LYVE-1) (R&D, Cat. No. 2089-Ly) (UniProt Q9Y5Y7 24-232, limits assumed).
T3 sequence (looked up): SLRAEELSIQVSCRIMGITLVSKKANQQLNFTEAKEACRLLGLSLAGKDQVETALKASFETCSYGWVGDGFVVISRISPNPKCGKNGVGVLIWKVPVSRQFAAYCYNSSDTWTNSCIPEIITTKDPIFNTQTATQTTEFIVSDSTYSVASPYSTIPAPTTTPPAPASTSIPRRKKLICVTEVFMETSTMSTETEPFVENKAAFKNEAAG
As to the kind of experiment: ELISA on plate-coated LYVE-1 (50 ng), anti-human kappa-HRP detection. As to the method: (§3) A 96 well ELISA plate (Immuno Maxisorp plate, Nunc Cat. No. 442-404) was coated with 50 ng CD44-Ig fusion protein or LYVE-1 and incubated overnight at 4° C. The plates were then washed by PBS, 0.05% Tween-20 and blocked by 3% BSA in PBS for two hours at room temperature. […] The ELISA plates were incubated at room temperature for 1.5 hours. […] Plates were washed again, and […] of TMB were added and incubated for 5 to 10 minutes. ELISA reactions were stopped with stop solution and OD450 values were measured by a plate reader.

Test [11] concerns the target T4, cynomolgus CD44 (on cells) (cynomolgus monkey, UniProt P16070 21-742 (human entry)).
T4 chain: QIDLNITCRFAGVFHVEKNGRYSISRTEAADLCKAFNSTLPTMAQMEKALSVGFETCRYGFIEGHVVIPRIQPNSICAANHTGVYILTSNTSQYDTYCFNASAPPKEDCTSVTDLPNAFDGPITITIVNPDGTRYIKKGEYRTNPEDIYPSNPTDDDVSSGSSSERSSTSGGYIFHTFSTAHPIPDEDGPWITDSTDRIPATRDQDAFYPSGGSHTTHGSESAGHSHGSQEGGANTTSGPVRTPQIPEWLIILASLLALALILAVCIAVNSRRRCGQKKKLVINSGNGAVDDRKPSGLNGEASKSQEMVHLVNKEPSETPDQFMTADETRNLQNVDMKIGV
Briefly: cell-based or functional assay.

Test [12] has as its target T1, human CD44 (on cells). Briefly: cell-based or functional assay. The source holds these as a separate data set.
Test [13] has as its target T2, human CD44-IgG1 fusion protein …. Briefly: ELISA on plate-coated CD44-Ig (50 ng), anti-human kappa-HRP detection. As to the method: as §3
Background: In an ELISA, binding on a coated surface is turned into a signal by an enzyme label.

Test [14] has as its target T4, cynomolgus CD44 (on cells). Briefly: cell-based or functional assay.
Test [15] concerns the target T2, human CD44-IgG1 fusion protein …. As to the kind of experiment: ELISA on plate-coated CD44-Ig against plate-coated LYVE-1. How it is done:
as §3

B1: anti-CD44 monoclonal antibody 10C8.2.3 (antibody, human IgG4, kappa, V domains shown)
VH: EVQLMESGGGLVKPGGSLRLSCAASGFTFSSYSMNWVRQAPGKGLEWVSSITVRSSYIYYADSVKGRFTISRDNAKNSLYLQMNSLRAEDTAVYYCARVLAIAVPGTSYYYYGMDVWGQGTTVTVSS
VL: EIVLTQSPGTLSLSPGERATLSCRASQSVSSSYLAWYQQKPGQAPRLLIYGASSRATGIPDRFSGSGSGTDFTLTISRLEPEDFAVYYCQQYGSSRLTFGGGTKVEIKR
As a reminder, the IC50 is the concentration at which inhibition is half-maximal. Take B1: the “IC50 of IL-1β release from purified human PBMC stimulated by HA” value (shortened to “IC50 of IL-1β release”) in test [1] stood at 0.4 µg/mL. Besides, the 50% inhibitory concentration (IC50) in test [2] came to 0.64 µg/mL. In addition, in [3], the “IC50 of reduction of CD44 surface expression on human peripheral CD3+ T cells (FACS)” value was over 20 µg/mL.

B2: anti-CD44 monoclonal antibody 1A9.A6.B9 (antibody, human IgG2, kappa, V domains shown)
VH: QVQLVESGGGVVQPGRSLRLSCAASGFTFSSYGMHWVRQAPGKGLEWVAVIWYDGSNKFYADSVKGRFTISRDNSKNTLYLQMNSLRAEDTAVYYCARRSDYRGYYGMDVWGQGTTVTVSS
VL: EIVLTQSPATLSLSPGERATLSCRASQSVINYLAWYQQKPGQAPRLLIYDASNRASGIPARFSGSGSGTDFTLTISSLEPEDFAVYYCQQRRNWPLTFGGGTKVEIKR
notes: also called mAb 1A9.A6.B9
One may read the Kd as a measure of binding affinity in units of concentration. A lower Kd goes with higher affinity. As usually defined, the koff is the rate constant with which the complex falls apart. A low value points to slow dissociation. A word on the EC50: it is the concentration that produces a half-maximal response. A lower EC50 goes with a more potent agent. For the molecule B2, the “IC50 of IL-1β release” value in [1] came to 0.83 µg/mL. In test [4], this molecule came in with a Kd of 0.051 nM and a koff of 0.00039 s⁻¹. The “IC50 (read off the curve)” value in test [5] was about 3 µg/mL. In addition, in test [6], the Kd was 6.8 nM. Also, in test [7], the Kd is 0.6 nM and the koff was determined as 0.000576 s⁻¹. The molecule also displayed an IC50 in [8] of 0.41 µg/mL. For the same molecule, in test [9], the “IC50 of IFN-γ release from human peripheral blood activated by anti-CD3 and anti-CD28 antibodies” value worked out at 2.46 µg/mL; the “IC50 of IL-2 release from human peripheral blood activated by anti-CD3 and anti-CD28 antibodies” value worked out at 0.58 µg/mL. The binding result in [10] was “no binding (tested: 10 µg/ml)”. Also, the “IC50 of reduction of CD44 expression on cynomolgus peripheral blood T cells (FACS)” value in test [11] was 1.1 µg/mL. Further, in test [12], the “IC50 of reduction of CD44 expression on human peripheral blood B cells (FACS)” value came to 2.4 µg/mL, the “IC50 of reduction of CD44 expression on human peripheral blood T cells (FACS)” value stood at 2.6 µg/mL and the “IC50 of reduction of CD44 expression on human peripheral blood monocytes (FACS)” value worked out at 3.3 µg/mL. Further, a half-maximal response in test [13] (EC50) required 0.011 µg/mL. For the same molecule, the “IC50 of reduction of CD44 surface expression on cynomolgus peripheral CD3+ T cells (FACS)” value in test [14] is 0.82 µg/mL. Also, the “IC50 of reduction of CD44 surface expression on human peripheral CD3+ T cells (FACS)” value in [3] was determined as 2.8 µg/mL. Moreover, the “fold selectivity for CD44 over LYVE-1” value in test [15] is over 100 fold.

B3: anti-CD44 monoclonal antibody 14G9.B8.B4 (antibody, human IgG1, kappa, V domains shown)
VH: QVQLVQSGAEVKKPGASVKVSCKASGYTFTNYAMHWVRQAPGQRLEWMGWINTGNGNTKYSQKFQGRVTITRDTSASTAYMELSSLRSEDTAVYYCARFYSGSGSPWGQGTLVTVSS
VL: not shown
As to B3, in [10], the binding result is “no binding (tested: 10 µg/ml)”.

B4: 2D1 WT/H38Q (mutated antibody 2D1.A3.D12: wild-type heavy chain, light chain H38Q) (antibody, human IgG1, kappa, V domains shown)
VH: QVQLVQSGAEVKKPGASVKVSCKASGYIFTSYAMHWVRQAPGQRLEWMGWINAAIGSTKYSQKFQGRVTITRDTSASTAYMELSSLRSEDTAVYYCARDGWEDYYYHGMDVWGQGTTVTVSS
VL: DIQMTQSPSSVSASVGDRVTITCRASQGISSWLAWYQQKPGKAPKLLIYAASSLQSGVPSRFSGSGSGTDFTLTISSLQPEDFATYYCQQANNFPWTFGQGTKVEIKR
Turning to B4, in [9], the “IC50 of IFN-γ release from human peripheral blood activated by anti-CD3 and anti-CD28 antibodies” value is 2.45 µg/mL; the “IC50 of IL-2 release from human peripheral blood activated by anti-CD3 and anti-CD28 antibodies” value was 0.46 µg/mL.

B5: anti-CD44 monoclonal antibody 2D1.A3.D12 (antibody, human IgG1, kappa, V domains shown)
VH: QVQLVQSGAEVKKPGASVKVSCKASGYIFTSYAMHWVRQAPGQRLEWMGWINAAIGSTKYSQKFQGRVTITRDTSASTAYMELSSLRSEDTAVYYCARDGWEDYYYHGMDVWGQGTTVTVSS
VL: DIQMTQSPSSVSASVGDRVTITCRASQGISSWLAWYQHKPGKAPKLLIYAASSLQSGVPSRFSGSGSGTDFTLTISSLQPEDFATYYCQQANNFPWTFGQGTKVEIKR
For B5, the “IC50 of IL-1β release” value in [1] turned out to be 0.23 µg/mL. Moreover, in test [7], the Kd came to 2.01 nM and the koff is 0.000653 s⁻¹. Further, the binding result in test [10] was “no binding (tested: 10 µg/ml)”. Also, a half-maximal effect in [13] (EC50) was put at 0.024 µg/mL. The molecule also displayed an IC50 in test [2] of 0.33 µg/mL. The “IC50 of reduction of CD44 surface expression on cynomolgus peripheral CD3+ T cells (FACS)” value in [14] was over 20 µg/mL. Also, the “IC50 of reduction of CD44 surface expression on human peripheral CD3+ T cells (FACS)” value in test [3] was over 20 µg/mL. Moreover, the “fold selectivity for CD44 over LYVE-1” value in test [15] was over 100 fold.
